# Source: the DeepSol protein solubility set
# Assay: soluble on expression in E. coli; label from the status in PepcDB or PDB records
row,Sequence,soluble on expression in E. coli
1,MHSAKNEKCNACGGYRFSVNDGFKYCDRCGALFENFEELEEEEGGLQQTVGQGKVKVRKNDDQKRVRNNAAPVNLPKAQVMREALEKRSDFLQQQAIKGEELELPHDATPDYLYRLALRLFSFTQILAKSGHILVHELNFESRVQENILATFQKYLAHCQVAFCHSEQCGNDEHLRFVAVMENLRYEQEEREEKQRKRMAKRGKGVNALSKSAAAWTLLTQGNITEHLDIASDEDGDQDAQGGQQLDDLTLETTQNPDESIRVNDTTMGFVRKVTTALSKEALRRASQLILNLEMLVAILHSALMSSGYQTILTSDVVRWIREDRFRISRRSIRLIRQSQPERMKQGEVVKPTIVDYAEPFLRFPLYEIMRTCTIFHQSLKLASSMAPQSFESMSARLVDNLNLPSDILSRMLILESIIPCDVSPQLLKQVDVDMGYNCGQLAAMSPNVYYSGFLTSFGRKERGTQDADFCDEVLLSPDAKLIAYLLLTLRLTFQLDNAQCALQDDQYFDVDSWIHQLEMRIKCWQGHNMSLVMRSSSHVPEMVVDPPFGTNYLFHQEKGAPQVSCRRRQAGFQKCIPTEMSFNSTSTLPTVFDVRHMGLLTERCQMEALISPVKFQRTVLGNEIERDPLTFENVDRQSKNTFFKHFSAFKTTESCDTFEEYFPCAKNYLLFKRPDWIQNCTARQTHFNPVTGPIRFYLSNQSCDDLLGTAATSFSRRFQFLLDALSLIIGEDKKAVYAAFVMLEMHLTSSERIQSIRDDLLTSSPITLKCQKFRNSTHHIPRKYGVISEVPIDRIENLRYFRLSRQFFEHEEMPTTINMELIDYRNQEIRDSVTETEVQRAQNRIMKLCYEFEQFFGILAVKFW,soluble
2,MKKLEIEFEQVVKQYKNTIYTVCFMFSKDSREVNDLFQDVLVNLWKGFDTFKGESNIGTWIWRVSLNTCISSDRKKKIVSVPLIMGIDLFEDRDEDTTQIKMLYNRISRLKHFDRAIVLLWLENFSYEEIAAIVGISVKNVSVRLFRIKEELKKMSNN,not soluble
3,GPGSMSTTAYALVAEEKQYPLQVGKNVVGRSSVPVEGVSFINLESPLAAISRMQAFVDIGANGDAWISDCNSTNGTFLSISPGPGIRLEANRYYQLSPGCRIVFGDVVCTFETLSEAPPTPEHPAHLLTSHSRPTRKTESLGVVDALADSTATTTPARHPSKQLNAHRSNVPYLDESGSLLREPAASRETVATTKKTPRRERREPTAPSPPLKRAKVESAAPSSFLKVKTAATAKATTPARALAARPHVCLTGMDSDERVAVTKRVRELKGRVVDDITKANLLVVATPPVRTPKFIAAVARGIPVVSVDYICNRRAELDDARHHIVGLKTDQHTYTAAELKKVIYRKDASPLLQGVSFNIAALSSKTKSVAAEIISSSGGEVVSTKKGGGTALTDAQLDKLYDSILRGKVPDVL,not soluble
4,MKTHKTKNDLPSNAKSTVIGILNESLASVIDLALVTKQAHWNLKGPQFIAVHELLDTFRTQLDNHGDTIAERVVQLGGTALGSLQAVSSTTKLKAYPTDIYKIHDHLDALIERYGEVANMIRKAIDDSDEAGDPTTADIFTAASRDLDKSLWFLEAHVQEKS,soluble
5,MEYGIVYLLTNPVMPGLVKIGMTTQEGIDKRMKELYTTGVPIPFECKFACKVKKSDCLKIEKALHKAFDPQRINQNREFFRINVEQAQAILELFHHEDVTEEVTDEIQNDLTDEDKAASTKAQAKRPPLNFYEMGLQKGDILIWKDDPSISVTVLSERKVCYEGEETSISALSAKLKGYKVKHIQPTPHWFFNDRSLSEIYDETYPFEE,not soluble
6,GPLGSPQFMNPAAEAEFNILLATDSYKVTHYKQYPPNTSKVYSYFECREKKTENSKLRKVKYEETVFYGLQYILNKYLKGKVVTKEKIQEAKDVYKEHFQDDVFNEKGWNYILEKYDGHLPIEIKAVPEGFVIPRGNVLFTVENTDPECYWLTNWIETILVQSWYPITVATNSREQKKILAKYLLETSGNLDGLEYKLHDFGYRGVSSQETAGIGASAHLVNFKGTDTVAGLALIKKYYGTKDPVPGYSVPAAEHSTITAWGKDHEKDAFEHIVTQFSSVPVSVVSDSYDIYNACEKIWGEDLRHLIVSRSTQAPLIIRPDSGNPLDTVLKVLEILGKKFPVTENSKGYKLLPPYLRVIQGDGVDINTLQEIVEGMKQKMWSIENIAFGSGGGLLQKLTRDLLNCSFKCSYVVTNGLGINVFKDPVADPNKRSKKGRLSLHRTPAGNFVTLEEGKGDLEEYGQDLLHTVFKNGKVTKSYSFDEIRKNAQLNIELEAAHH,soluble
7,DSPPSESLPSADSNRTHIVNGVGAFQSKVHPSIVTVLYFPGPVTSAISSDDQSFETSIVGHSVVIRPAPNVTAKTVGNINITTRAMNVSLTMRIAERPEDAATQLVFRALSEVEAFETRVAAEVERVRQEVEHEYERRHRNLEREVTHATEQAIARRMLMRHEGREFGAIARNEHNIIARVTRAQWIGPELYLYFEIQNRDSTPYHLAHVRLLGPTGESDHVDHLEFAGAGDVIDGSLGTVLSGQRGRGIVHVRDAARFAGKPFTFLVSEARERRAVSIGGITW,not soluble
8,MIGMDHLAIGTYEGFLIGYDIDTQPNDPKTTTGCTLRYAYAAHERSIRCIAGSFPILASASVDESIKVYQLDQLQELATLYDLQVPVNSVDIQLQGGLLSGGEDGKLVYYPYGGWSKPKYLKGHKGNVHSVALHPTGQICLSVARDKCLKLWKTNGDCVCSLELPDEAFIVKWTEDGQGWVIATQTSFSVHSLQTGLIQQWEYSTRLVCLCALTNDIFVVGGMDGHLRVGENKPIQVHKVDGGSLVKGIGVGRDGCIYSLSSKGVLEMVAPSRQLEIQNGVVKRYIE,not soluble
9,GSHMSLFDFFKNKGSAATATDRLKLILAKERTLNLPYMEEMRKEIIAVIQKYTKSSDIHFKTLDSNQSVETIEVEIILPR,soluble
10,MGSDKIHHHHHHVTDSDSQPVNEFPIAPPAPRKGRGAVTNLQGRYEVDQREAIDDGWLSLAEDDDEPKVLRTQVFEERAKTILTRNASPDIPFGVSLNPYRGCEHGCIYCFARPTHSYLGLSPGLDFESRIYAKVNAPELLERELSKKSYVPEPIALGVNTDAWQPAERDLQLTRRVIEVLSERHHPFAAITKSSLIERDLDLLAPMAARGQFMAAITITTLDAGIARTLEPRAATPSRRLRTIRTLSEAGIPVGVSIAPVIPFVTEPDMERVLEACAEAGASNASYIVLRLPWEVAPLFKDWLAAYFPDRAERVMGRVRDMRGGKDYDSSFSTRMKGEGLWADLLKQRFHKAVRRLGLNRRDRGILDMSHFRRIEPPRAGQPARNDSQLDLF,not soluble
11,MSLDIILDQPEQMLFALLRSALNSTKPVSEILFTDISPALWQACYRLACTQGVMALAWDGIQTLPACLQPPKALKLNWAMAVENYEKRYLRYCHTIAELSAFYKTHGITTVQLKGVGLSTYYPIPSHREGGDIDIFTYSADHSRKSDAEANRLADRLMEEKGIEVDFEHSEKHSMFYYKGIPIENHKTFINSETYRIAVKMDKLLQKLLQPVSAELDGKCSILIPSSTFNTVFLAFHAAQHYARGLALHHLCDWACLLNRYDLHIPEEVTDIRFRNMILAMTRLCNDYLGTSVPVYGGEELAEEILREIIRPPYTMSVPAKNKWGILVYKTKRMLHTHRACNSVLRISLCKWVGNSILLHLRSPHTIFQTEREGHHHHHH,soluble
12,MGSDKIHHHHHHMRLNRETIKDRAAWEKIGVRPPYFDLDEVEKNTKEQPKWVHFGGGNIFRGFVAAVLQNLLEEGKEDTGINVIELFDYEVIDKVYKPYDNLSIAVTIKPDGDFEKRIIASVMEALKGDPSHPDWERAKEIFRNPSLQLASLTITEKGYNIEDQAGNLFPQVMEDMKNGPVSPQTSMGKVAALLYERFKAGRLPIALLSLDNFSRNGEKLYSSVKRISEEWVKSGLVEKDFIDYLEKDVAFPWSMIDKIVPGPSEFIKEHLEKLGIEGMEIFVTSKRTHIAPFVNMEWAQYLVIEDSFPNGRPKLEGADRNVFLTDRETVEKAERMKVTTCLNPLHTALAIFGCLLGYKKIADEMKDPLLKKLVEGVGEEGIKVVVDPGIINPREFLNEVINIRLPNPYLPDTPQRIATDTSQKMPIRFGETIKAYHERPDLDPRNLKYIPLVIAGWCRYLMGIDDEGREMQLSPDPLLENLRSYVSKIKFGDPESTDDHLKPILSSQQLFRVNLYEVGLGEKIEELFKKMITGPRAVRKTLEEVVGREDG,not soluble
13,MTATPVLALSEFQGAPAPIAGEQNAAPGDEAEEAAPEERTPLEIPMPDPLVDRTAVELKDDEIAAPDVVEPVEVLTDVSKIPVPVARMRELIVEAAASGDIERLRPLLGKGPTQTQVTATAGEDDPIAALKSLSGDQDGIEILAILLDVMSTGFVLADKGTPEEAYVWPYFAEKPLSSLTAPEKVDLFRLVTAGDFAGMEEFGTYNFYRVGITPDGKWKFFVAGD,not soluble
14,IYGYVEKATLIDQNLTLSAKLDTGAKSASLHAVNITEIEKKGIPYLRFTVPTKTGDYSFEGEYVGKVKIKVRSSETNPGLLRTTPIKRPVVLLNIKLGDKVRTIKVNLTNRKRFLYPLLLGRDAIIDFNGAVDPALTFTTKSK,soluble
15,MRGSHHHHHHTDPALRANKVAQYYRELVASLSERLRNGERDIDALVEQARERVIKTGELTRTEVDELTRAVRRDLEEFAMSYEESLKEESDSVFMRVIKESLWQELADITDKTQLEWREVFQDLNHHGVYHSGEVVGLGNLVCEKCHFHLPIYTPEVLTLCPKCGHDQFQRRPFEPGLCGR,soluble
16,MVYVKSLLRRADNFMYIVKKSSEARAALLVDLVNEEDYKELADKENIDITAVLTTHHHYDHCGGNEGFRRQFPNVMILGGDSRIPAMDRHVKHGDMAEFAGLQIKCLSTPCHTSGHICYHITNPAADSTSPGVVFTGDTLFIAGCGRFFEGTAPQMDVALNEILKNLPVETQIFPGHEYTVANLKFACHVEPGNEKAAQKLEWAQRQIEQGGFTVPSTVAEEKATNPFMRVRESEEIQKSIGTCDAVVGMAKLREMKNKF,not soluble
17,MGHHHHHHSHVAEGQEPAEFWDLLGGKTPYANDKRLQQEILDVQSRLFECSNKTGQFVVTEITDFTQDDLNPTDVMLLDTWDQVFLWIGAEANATEKESALATAQQYLHTHPSGRDPDTPILIIKQGFEPPIFTGWFLAWDPNIWSAGKTYEQLKEELGDAAAIMRITADMKNATLSLNSNDSEPKYYPIAVLLKNQNQELPEDV,soluble
18,MGSDKIHHHHHHMIPFHDRPFAEYLVEMLRGQGFRRILFLLGYLPDKVTEHFGDGSRFGVEIEYAVSPVEDETGTRLRRVKDRLDDIFVLLYCDNYWPMPFAAMWERYCRLGVEAMVTVYRNRDGYTRDNLRVDDDGLLALYDKSRTAPGLAGVDIGFFILTRAVIDLIPEGGNPSFEKSVYPVLVERRQLAAFETDHRYYSVGSHERLPLTEAFLARNKTVLLDRDGTLNLRMPRAEYVRSWADWQWLPGAREALAELARADYRIILITNQPGLARGALDQAALDAIHGRMIEETQAAGGRIDHIYYCPHNWDEGCDCRKPRPGMLFQAQRDFHLDLSRVTFIGDDDRDGEAAQAAGAPFLQVTESYSLLDAVHDLLAADHSNPVTGKCPD,not soluble
19,MTDTIEAKANMQTVSALPPEETERLGTEIVAALKTVFDPEIPADIYELGLIYKVEIKDDRTVDIDMTLTTPNCPAAAELPTMVENAVASVPGVGVVNVNIVWEPPWTPERMSDEARLVLNMW,not soluble
20,MSFAIEIVIKAPMDIVCDYIIEDEKIKEWNTFIIENRYPSNMDKENPRVGDKYITVQKVGKKIFEAEVEILEYDAPHIISLGSEMKQGYSAMTYMLEEDEEGTALTLISEYEPSNFYYKMMYKLTGWISRGLTMEQMERLAECVEAAYHKEDLEHHHHHH,not soluble
